# According to paper PMC7935953 (2021):
# Molecular target: His-LC3A (human, UniProt Q9H492 1-121)
# Assay: ITC
binder,measurement,value
GSGTWTLVDEG [hEPG5-LIR1 peptide],Kd,20.4 µM
